In the DeepSol protein solubility set:

Assay: soluble on expression in E. coli; label from the status in PepcDB or PDB records

Row | Sequence | soluble on expression in E. coli
1 | MNATINDDDIDDVKKALDHATQAAHKAAAELTAKLRSDFVEYGNGGTAGQVLIHIYGPGLIYGFSAFPVQIRLEIPNQPVPFNKVHITEVTAYVIDENNRTYWTRVWNSSTFRQGGYIADTLDLVTVMKAPDPLVYQIRDAIVTGQISRELYDKIWNTSTTHFEIRVIVKGYQEAWKTDSSVSNQSSCPSDGHWYEDACWVHDKDIDFTLKAETTTAWGHVTGTNDVATIDGGMLGSLPIKFLQSLDLSGKWVLYQNKYAGALSDFIIITAASPVHVLNSTAMYKFLITPNPGYFQPANPKISDEYRFVTLRVIEGGRMELADTTTGHIGDLTEPTFFGLTAHYTDAPGTLDYHALGLVYAYVERDDGVKIPIWLAAEPMISVLSNTYTVMKDQDVKNLIDLYKKKDREKINATTKAMINSLQEKIDEAEQLLAKAKGMNNENAIEYAQGAIDEYKAAINDLQKAAQQDDYQMFLNYLNAAKKHEMAGDYYVNAARKALNGDLEQAKIDAEKAKEYSNLAKEYEPG | soluble
2 | MTTSCLQEKIDKLQNTVHALLHKSNYMAGVYVDDLARLNNEIHEQINDLYPCHGKTAEQEAALCLSLLMGYSVSMYANSEDEAKKKTVLRRSQMILKNQLPSPLKIQLHTIYDKLLS | not soluble
3 | MHPALKYMRQDRLPHIFCSGCGNGIVMNCFLKAIEELNIKPEDYIAVSGIGCSSRVPGYLYCDSLHTTHGRPIAFATGIKIARPDKHVVVFTGDGDLAAIGGNHFIHGCRRNIDLTVICINNNIYGMTGGQVSPTTPYGKKATTAPYGSIENTMDLCKMAIAAGATYVARWTTAHPIQLVRSIKKGIQKKGFAFIEVVSQCPTYYGRFNISRKPADMIKFLKENSIHLNKAKDMSEEELNGKIVVGEFLDIEKPEFVEELHKLIEKLKSE | not soluble
4 | STFSKAAPSVPSKPSDCNFISNFYSHSRLHHISMWKCELTEFVNTLQRQSNGIFPGREKLKKMKTGRSALVVTDTGDMSVLNSPRHQSCIMHVDMDCFFVSVGIRNRPDLKGKPVAVTSNRGTGRAPLRPGANPQLEWQYYQNKILKGKAADIPDSSLWENPDSAQANGIDSVLSRAEIASCSYEARQLGIKNGMFFGHAKQLCPNLQAVPYDFHAYKEVAQTLYETLASYTHNIEAVSCDEALVDITEILAETKLTPDEFANAVRMEIKDQTKCAASVGIGSNILLARMATRKAKPDGQYHLKPEEVDDFIRGQLVTNLPGVGHSMESKLASLGIKTCGDLQYMTMAKLQKEFGPKTGQMLYRFCRGLDDRPVRTEKERKSVSAEINYGIRFTQPKEAEAFLLSLSEEIQRRLEATGMKGKRLTLKIMVRKPGAPVETAKFGGHGICDNIARTVTLDQATDNAKIIGKAMLNMFHTMKLNISDMRGVGIHVNQLVPTNLNPST | soluble
5 | MTDQPISLEEIRLRLNELDDQLLSLLSERRKLSIEVAKSKVQTSKPVRDAVREQQLLVKLISNGRDKYELDAQYITKLFHTIIEDSVLLQQGYLQNLVNPQQSRKPLARVAFLGAKGSYSHLASREYFSRKNTELIELNCEHFKEVTRTVESGHADYGVLPIENTSSGSINEVYDLLQHTTLYIVGELTQPIEHCLVATKDIRLEDIKTLYSHPQPHQQCSEFLSRMKGVKLESCASTADAMQKVQEMNRDDVAAIGNASSGKLYGLQAIQGNIANQTENHTRFIVVARKPVEVSTQIPAKTTLIMSTSQEAGSLVETLLVLQRYGINMTKLESRPIMGNPWEEMFYVDLEAHLGSTEMQQALQELTKITKHLKVLGCYPSENIKPTQVKLS | not soluble
6 | MAVAANKRSVMTLFSGPTDIYSHQVRIVLAEKGVSFEIEHVEKDNPPQDLIDLNPNQSVPTLVDRELTLWESRIIMEYLDERFPHPPLMPVYPVARGESRLYMHRIEKDWYTLMNTIINGSASEADAARKQLREELLAIAPVFGQKPYFLSDEFSLVDCYLAPLLWRLPQLGIEFSGPGAKELKGYMTRVFERDSFLASLTEAEREMRLGRS | soluble
7 | AFSFAAEHGLELDKVDIDLTDKAAMQDGARTFANYCMGCHSAKFQRYERVADDLGIPHELMLEKLVFTGAKIGDHMQIGMKPSDAKTWFGAAPPDLTLVARVRGTDWLYTYLRSFYEDPSRPYGVNNKVFPNVGMPNVLVGLQGNQVVGCKQVQTVVDGKKQFDPLTGSPLTHEACDQLTITPNSGTLTAEQFDEKVKNLVTFLAYSANP | not soluble
8 | MSLVMWLMAHSEKLEDLLEGKPVVIIEDGELAWSKLNNSNMTEFEFFMELRLRGVEQLGQVRLAILETNGQISVYFFEDDKVKPGLLILPSDCTQRYKVVPESADYACIRCSEIIHMNAGEKQLCPRCANPEWTKASRAKRVTEGHHHHHH | soluble
9 | MWEHDIVLEKIVDPVPDALYPCCIKAVRVGLKEDSWGEVQAIEEEMSTAELTANVNVALAPFQRKVVKEEGEAKKTKRAASKGRVEEVEQDVWKTLFDQALAYRDLAPWTWMDDDQIFAVVTPDGESLYCTVIGALGQEYGLVIYMGEEGYACLQDILSGTLHPKDAVFKERALLVSLAPRNHLERDDKALLRKHHIPVSGKQLLPMFRSFVPGYYPWFLSEEEAAWAAMALEQAVVVAERLRDGELFLASSARGNRLFARIAERREDGLHWRDGWVPPPKAKKKETSALDIGTDELAKAKTLERAPLFVEFSVAYVNRPIQERRWERPYFPLLVLAADAASGVILHHQVFRGQTDAKTLQQSFLAFARALGCVPSHVRVTKEHGPLLAPLLRELGVNMSTGPTPRSDEVRELFEQFAI | not soluble
10 | MGSDKIHHHHHHMSSNSRVYGIVPSKRLGRSLGVSPIPFKTCTYSCVYCQLGRTTNFTVKRQTFFPLKVFEEELKGFVKRHRYDFDVVSIVGEGEPTLYTPLDALIDLCKSITGKPVVLITNGSLFWSEKVRKEAKLSDIIMPTLSAWDEKSFRTIHKPHKNLSFQKVFEGLKKFRREYSGEIWLEVMLVKGLNDFALEELKEKISQVESDRVYVNVPVRPPAEGWVEPPDEETIEKAKELFNAASIETPAASRFIAAGEGIDAVLNVIKRHPMNEEEVRDLLTSQKIDPKPVLEKLRSCKNVKIIEYSGRRYYRYTTAE | not soluble
11 | MWLSGARLVLPDRVLTEGSLRLEGERIAEVREGFVPSGMDLRGFTVVPGLVDLHGDSLERELEPRPGVRLPLELALPSWELRQLAAGITTVYATVAFWEGAGGVREPDQGLRLAQELWGLRSALHVDLRIHARYEVSRPQGEPAVREALRKGWVHLLSFMDHTPGQGQFHDLETYVRYMARHHGRPEAEVYDEVKRLSTRATWEGLEALAAEALAKSIPLASHDDDTPDRVALMARLGVTVSEFPVRLEAAKEAKVRGMTVVMGAPNALRGGSHHGNLSALDALREGLLDALATDYLPEAALRAPFRLAAQGLLDLPLALALVTRRPALAVGLADRGALAPGLRADLVVLKESPFSVLGAFVAGKPVFVGGELAHALA | soluble
12 | MAAQIPESDQIKQFKEFLGTYNKLTETCFLDCVKDFTTREVKPEETTCSEHCLQKYLKMTQRISMRFQEYHIQQNEALAAKAGLLGQPR | soluble
13 | MKHLKLIVVILATLALGCLIKSPASVKFEIDRTTIPPSGVFHLIVTLNNTGKVGIVDAKLVVEGEEFFIVQSPKLEHPIKVGDSAKLIWTIKGPKIPGNYHFKAYLDIVDELNRVWRGITYETTIKVSSEELKDSVNLNLTVPSKVQGGKIIIVSGEIVNNLTVPVNIVSAEVSAEDLEVIDKEVPNKIDANSKGKVVFKFKVPPRYEKVRMYVIIEYASLQVSGKLIGEKDILIVWKPWELSPEDVKDIYGNLSEWIFYNDIVDGYWEWMYGSKSKIENRTMFRESVEDLLSVANSDVEAAKAVYNHIVTNYVIEKRRIKTLDPQKIMESSSISPTEAEILMVAYLRSLNIPARIVSVYSETDCTYSPFVEAYLSGKWYVIDFNHMFFGTREEFIATRWYPKIYQEITVFGKSLVALKPSPSGHAHEDLTKEYLSITEKALFNHLSKSLDPSTFSQVRIMLNSMNNEDERIFAMFLFTSAKPEEAKQLLEKVHVNELKKTIDAFYKFYRDIPWEEDFRIYWEKLINLYRLEHHHHHH | not soluble
